Results on 28 substances are retold here after patent publication US20110250613A1, “Arrayed Multiple Ubiquitin Binding Domains as Linkage-specific Polyubiquitin Affinity Reagents” (THE JOHNS HOPKINS UNIVERSITY, priority 2009, published 2011).

Experiment [1] addresses K63-linked tetraubiquitin (UniProt P0CG48). Description: fluorescence anisotropy.
Experiment [2] concerns the target K48-linked diubiquitin (UniProt P0CG48). Description: fluorescence anisotropy.
Experiment [3] addresses K48-linked tetraubiquitin (UniProt P0CG48). As to the kind of experiment: fluorescence anisotropy. Background: Polarisation of emitted light reports the rotation of a fluorescent probe.
For experiment [4], the target named is K63-linked diubiquitin (UniProt P0CG48). As to the kind of experiment: fluorescence anisotropy.
In experiment [5] the target is K48-linked tetraubiquitin (UniProt P0CG48). Description: fluorescence anisotropy, ratio of Kd.
Experiment [6] concerns the target K63-linked tetraubiquitin (UniProt P0CG48). Description: fluorescence anisotropy. The source holds these as a separate data set.
The target in experiment [7] is K48-linked tetraubiquitin (UniProt P0CG48). Description: fluorescence anisotropy. This is another data set of the same source.
The target of experiment [8] is K48-linked diubiquitin (UniProt P0CG48). Description: fluorescence anisotropy, against K63-Ub2.
Experiment [9] shares this target. As to the kind of experiment: fluorescence anisotropy. This is another data set of the same source.
Experiment [10] has as its target K63-linked diubiquitin (UniProt P0CG48). Description: fluorescence anisotropy. The source holds these as a separate data set.
Experiment [11] addresses K48-linked tetraubiquitin (UniProt P0CG48). As to the kind of experiment: fluorescence anisotropy, against K63-Ub4.
Experiment [12] addresses K48-linked diubiquitin (UniProt P0CG48). Description: SPR, GST-UBA captured on anti-GST antibody. Background: In SPR one partner is held on a chip, and binding of the other changes the refractive index at the surface.
The target of experiment [13] is K63-linked diubiquitin (UniProt P0CG48). Description: SPR, GST-UBA captured on anti-GST antibody.
The target of experiment [14] is K63-linked tetraubiquitin (UniProt P0CG48). Description: SPR, GST-UBA captured on anti-GST antibody.
Experiment [15] has as its target K48-linked tetraubiquitin (UniProt P0CG48). As to the kind of experiment: SPR, GST-UBA captured on anti-GST antibody.
Experiment [16] deals with K63-linked tetraubiquitin (UniProt P0CG48). As to the kind of experiment: SPR, captured on anti-GST antibody.
Experiment [17] shares this target. As to the kind of experiment: SPR Kd of GST-UBA1 against fluorescence anisotropy Kd of the free domain.
For experiment [18] the target is unchanged. Description: fluorescence anisotropy, solution state.
In experiment [19] the target is K48-linked tetraubiquitin (UniProt P0CG48). As to the kind of experiment: fluorescence anisotropy, ratio of Kd for Ub4 chains.
Experiment [20] addresses K63-linked diubiquitin (UniProt P0CG48). Description: ITC, single-site model.
For experiment [21] the target is unchanged. As to the kind of experiment: ITC, single-site model; unit mM, evidently µM. On the technique in general: ITC needs no label: the signal is the heat of the interaction.
For experiment [22] the target is unchanged. Description: fluorescence anisotropy; Rap80 tUIM with 9-alanine linker.
Experiment [23] has the same target. As to the kind of experiment: fluorescence anisotropy, alanine linker series.
Experiment [24] has the same target. Description: fluorescence anisotropy to high K63-Ub2 concentrations, divalent-divalent complex fit, avid mode.
Experiment [25] shares this target. Description: fluorescence anisotropy, divalent-divalent complex fit, non-avid mode.
For experiment [26], the target named is K63-linked tetraubiquitin (UniProt P0CG48). As to the kind of experiment: fluorescence anisotropy competition with fluorescent Vps27 7aa linker peptide.
Experiment [27] has as its target K48-linked tetraubiquitin (UniProt P0CG48). The experiment is described as above.
Experiment [28] concerns the target K63-linked diubiquitin (UniProt P0CG48). Description: fluorescence anisotropy competition against the fluorescent Rap80 tUIM peptide at saturating K63-Ub2.

Regarding Ataxin3 (wt) tandem UIM peptide, the dissociation constant Kd is 15 µM in experiment [1], 100 µM with K48-linked diubiquitin [2], 3.3 µM in experiment [3] and 91 µM with K63-linked diubiquitin [4]. Further, in experiment [5], the fold preference over K63-Ub4 was determined as 5 fold.
As to Ddi1 UBA, fluorescein-labelled, in experiment [5], the fold difference in Kd for K63- and K48-Ub4 is < 2 fold. For the same substance, the Kd in [6] worked out at 92 µM; in experiment [7] it was 50 µM.
On the same counts, the results for “Dsk2 UBA, fluorescein-labelled (from UniProt P48510 327-371)” are < 2 fold, 2.2 µM and 1.4 µM.
Regarding “Ede1_rhodamine (from UniProt P34216 1338-1381)”, the fold preference for K48-polyUb (in the experiment with K48-linked diubiquitin [8]; in experiment [11]) was < 2 fold each time. Also, the Kd in [6] is 54 µM; in the experiment with K48-linked diubiquitin [9], 86 µM; in experiment [7] it was 31 µM; in the experiment with K63-linked diubiquitin [10], 120 µM.
In the case of “GST-DRM2 UBA1 (from UniProt Q9M548 106-154)”, the figures for the Kd with K48-linked diubiquitin [12] and in the experiment with K63-linked diubiquitin [13] were 140 µM and 89 µM, respectively.
Turning to “GST-Ede1 UBA (from UniProt P34216 1336-1381)”, the Kd in [14] was determined as 6 µM; with K48-linked diubiquitin [12], 110 µM; in experiment [15], 25 µM; with K63-linked diubiquitin [13] it was 48 µM.
On to “GST-Ubc1 UBA (from UniProt P21734 167-215)”, for which the Kd in the experiment with K48-linked diubiquitin [12] was found to be 460 µM.
The substance “GST-fmm (functionally monomeric mixture; GST-His/GST-Ede1 heterodimer) (from UniProt P34216 1336-1381)” came in with a Kd in [16] of 23 µM.
On to GST-hHR23A UBA1, for which the Kd in experiment [14] stood at 4.7 µM; with K48-linked diubiquitin [12], 36 µM; in experiment [15], 13 µM; with K63-linked diubiquitin [13], 26 µM. In addition, the fold tighter than the free domain in experiment [17] is > 6 fold.
“Rap80 (1-233), fluorescein-labelled (from UniProt Q96RL1 1-233)” showed a fold preference over K48-Ub4 in [18] of 7 fold. Also, the equilibrium dissociation constant (Kd) in experiment [6] is 3.4 µM; in experiment [7], 23 µM.
The substance “Rap80 UIM1 peptide, fluorescein-labelled” gave a Kd in the experiment with K48-linked diubiquitin [9] of 280 µM.
The substance “Rap80 UIM2 peptide, fluorescein-labelled” registered a Kd with K48-linked diubiquitin [9] of 200 µM.
As for Rap80 ataxin linker (peptide), the Kd is 20 µM in experiment [1], 143 µM with K48-linked diubiquitin [2], 3.4 µM in [3] and 115 µM in the experiment with K63-linked diubiquitin [4]. Besides, the fold K48 preference in [19] worked out at 6 fold.
As to “Rap80 tUIM peptide with a C-terminal 3-amino acid extension (DWS)”, in the experiment with K63-linked diubiquitin [20], the n (sites) is 0.97 sites. In the experiment with K63-linked diubiquitin [21], this substance came in with a Kd of 17.6 mM.
“Rap80 tUIM peptide with no 6xHis-tag and fluorescein on a C-terminal lysine side chain (expressed protein ligation)” yielded a Kd with K63-linked diubiquitin [10] of 19 µM.
On to Rap80 tUIM with 9-alanine linker, for which, in the experiment with K63-linked diubiquitin [22], the Kd is 92 µM.
On to “Rap80 tUIM with 9-alanine linker (peptide)”, for which the fold weaker than 7 A with K63-linked diubiquitin [23] is > 25 fold.
Turning to “Rap80 tandem UIMs (wt) peptide, His6-tagged, fluorescein-labelled”, the Kd stood at 22 µM with K63-linked diubiquitin [24]; 3.6 µM in [1]; 14 µM in experiment [3]; 21.6 µM with K63-linked diubiquitin [4]; 1 mM in the experiment with K63-linked diubiquitin [25]; 3.8 µM in experiment [6]. In [7], this substance showed a Kd of 15 µM.
For the substance Rap80_ARLEEKV (peptide), the Kd stood at 230 µM with K48-linked diubiquitin [2] and 17 µM with K63-linked diubiquitin [4].
With Rap80_DLKAAIQ (peptide), the Kd with K48-linked diubiquitin [2] was 129 µM; in the experiment with K63-linked diubiquitin [4] it was 10 µM.
The corresponding values for Rap80_S101A (peptide) are 152 µM and 11 µM.
On the same counts, the results for Rap80_S101E (peptide) are 170 µM and 16 µM.
As for Rap80_nolinker (peptide), the equilibrium dissociation constant (Kd) with K63-linked diubiquitin [4] was 47 µM.
With “Ubc1 UBA, His-tagged, Alexa-fluor 546 labelled”, the values for the Kd in [6] and in experiment [7] were 170 µM and 37 µM, respectively.
For the substance Vps27 (wt) tandem UIM peptide, the Kd in the experiment with K48-linked diubiquitin [2] was 211 µM; with K63-linked diubiquitin [4], 67 µM; in [26] it was 29 µM; in [27], 31 µM.
Turning to ataxin-3 Rap80 linker (peptide), the Kd in experiment [1] was found to be 11 µM; with K48-linked diubiquitin [2] it was 160 µM; in [3] it was 7.8 µM; with K63-linked diubiquitin [4] it was 60 µM.
Consider “fluorescein-labeled hHR23A-UBA1 domain (from UniProt P54725 159-201)”, for which the equilibrium dissociation constant (Kd) in experiment [6] is 30 µM; in experiment [7] it was 9 µM.
In the experiment with K63-linked diubiquitin [28], unlabeled Rap80 tUIM peptide registered a Ki of 24 µM. In other words, the double-digit micromolar range.

The term Kd denotes a measure of binding affinity in units of concentration. Higher therefore signals a looser complex. A word on the Ki: it is the dissociation constant of the complex between target and ligand, obtained from inhibition or displacement. A higher Ki goes with lower affinity.
